Test results reported in publication PMC7261735.

Assays:
Assay in all cases: SPR; Biacore T200; recombinant human TNFα immobilized on a CM5 chip, antibody captured through binding to TNFα; association and dissociation globally fit to a 1:1 binding model; average of 3 intra-assay replicates per lot
ABP 710 = target: ABP 710
infliximab (US) = target: infliximab (US)
infliximab (EU) = target: infliximab (EU)

## FcγRIIIa (158V)
ABP 710
  Kd: 68 to 80 nM

## FcγRIIIa (158V) (receptor)
Infliximab (US)
  Kd: 63 to 93 nM
Infliximab (EU)
  Kd: 59 to 89 nM
